Test results taken from publication PMC11088703, “Structural basis of human NOX5 activation” (Nature Communications, 2024).

Key:
[1] = target: the molecule itself; assay: cryo-EM structure; purified NOX5 in 0.05% digitonin; pre-reaction (5 mM EGTA + 1 mM NADPH), intermediate (1 mM CaCl2 + 1 mM NADPH) and post-reaction (1 mM CaCl2 + 1.2 mM NADP+ + 60 uM FAD) states; C2 symmetry imposed
[2] = target: the molecule itself; assay: SEC; Trp fluorescence-based gel filtration; Superose 6 Increase; 20 mM Tris pH 8.0, 200 mM NaCl, 0.004% LMNG/CHS; excitation 280 nm, emission 350 nm

Protein	stoichiometry N [1]	binding result [2]
full-length human NADPH oxidase 5 (NOX5), NOX5-β variant (enzyme, UniProt Q96PH1-4 1-719, looked up, NADPH oxidase 5, human, NOX5-β variant (called v2 isoform in the methods); full length; a Zn2+ is modelled between the two CXXC motifs at the dimer interface; also called NOX5 v2 isoform; hNOX5; source: HEK293F, BacMam virus, purified (GFP-nanobody beads, preScission cleavage, Superose 6 SEC in digitonin); not shown: GFP, N-terminal, cleaved) MSAEEDARWLRWVTQQFKTIAGEDGEISLQEFKAALHVKESFFAERFFALFDSDRSGTITLQELQEALTLLIHGSPMDKLKFLFQVYDIDGSGSIDPDELRTVLQSCLRESAISLPDEKLDQLTLALFESADADGNGAITFEELRDELQRFPGVMENLTISAAHWLTAPAPRPRPRRPRQLTRAYWHNHRSQLFCLATYAGLHVLLFGLAASAHRDLGASVMVAKGCGQCLNFDCSFIAVLMLRRCLTWLRATWLAQVLPLDQNIQFHQLMGYVVVGLSLVHTVAHTVNFVLQAQAEASPFQFWELLLTTRPGIGWVHGSASPTGVALLLLLLLMFICSSSCIRRSGHFEVFYWTHLSYLLVWLLLIFHGPNFWKWLLVPGILFFLEKAIGLAVSRMAAVCIMEVNLLPSKVTHLLIKRPPFFHYRPGDYLYLNIPTIARYEWHPFTISSAPEQKDTIWLHIRSQGQWTNRLYESFKASDPLGRGSKRLSRSVTMRKSQRSSKGSEILLEKHKFCNIKCYIDGPYGTPTRRIFASEHAVLIGAGIGITPFASILQSIMYRHQKRKHTCPSCQHSWIEGVQDNMKLHKVDFIWINRDQRSFEWFVSLLTKLEMDQAEEAQYGRFLELHMYMTSALGKNDMKAIGLQMALDLLANKEKKDSITGLQTRTQPGRPDWSKVFQKVAAEKKGKVQVFFCGSPALAKVLKGHCEKFGFRFFQENF	2	
NOX5 R530A (enzyme, human, UniProt Q96PH1-4 1-719, looked up, NADPH oxidase 5, human, NOX5-β variant (v2 isoform in the methods; UniProt Q96PH1-4), point mutant; source: HEK293F, purified with the same protocol as NOX5 wild type (GFP-nanobody beads, preScission cleavage); not shown: GFP, N-terminal, cleaved) MSAEEDARWLRWVTQQFKTIAGEDGEISLQEFKAALHVKESFFAERFFALFDSDRSGTITLQELQEALTLLIHGSPMDKLKFLFQVYDIDGSGSIDPDELRTVLQSCLRESAISLPDEKLDQLTLALFESADADGNGAITFEELRDELQRFPGVMENLTISAAHWLTAPAPRPRPRRPRQLTRAYWHNHRSQLFCLATYAGLHVLLFGLAASAHRDLGASVMVAKGCGQCLNFDCSFIAVLMLRRCLTWLRATWLAQVLPLDQNIQFHQLMGYVVVGLSLVHTVAHTVNFVLQAQAEASPFQFWELLLTTRPGIGWVHGSASPTGVALLLLLLLMFICSSSCIRRSGHFEVFYWTHLSYLLVWLLLIFHGPNFWKWLLVPGILFFLEKAIGLAVSRMAAVCIMEVNLLPSKVTHLLIKRPPFFHYRPGDYLYLNIPTIARYEWHPFTISSAPEQKDTIWLHIRSQGQWTNRLYESFKASDPLGRGSKRLSRSVTMRKSQRSSKGSEILLEKHKFCNIKCYIDGPYGTPTARIFASEHAVLIGAGIGITPFASILQSIMYRHQKRKHTCPSCQHSWIEGVQDNMKLHKVDFIWINRDQRSFEWFVSLLTKLEMDQAEEAQYGRFLELHMYMTSALGKNDMKAIGLQMALDLLANKEKKDSITGLQTRTQPGRPDWSKVFQKVAAEKKGKVQVFFCGSPALAKVLKGHCEKFGFRFFQENF		binds
NOX5 R426A (enzyme, human, UniProt Q96PH1-4 1-719, looked up, NADPH oxidase 5, human, NOX5-β variant (v2 isoform in the methods; UniProt Q96PH1-4), point mutant; source: HEK293F, purified with the same protocol as NOX5 wild type (GFP-nanobody beads, preScission cleavage); not shown: GFP, N-terminal, cleaved) MSAEEDARWLRWVTQQFKTIAGEDGEISLQEFKAALHVKESFFAERFFALFDSDRSGTITLQELQEALTLLIHGSPMDKLKFLFQVYDIDGSGSIDPDELRTVLQSCLRESAISLPDEKLDQLTLALFESADADGNGAITFEELRDELQRFPGVMENLTISAAHWLTAPAPRPRPRRPRQLTRAYWHNHRSQLFCLATYAGLHVLLFGLAASAHRDLGASVMVAKGCGQCLNFDCSFIAVLMLRRCLTWLRATWLAQVLPLDQNIQFHQLMGYVVVGLSLVHTVAHTVNFVLQAQAEASPFQFWELLLTTRPGIGWVHGSASPTGVALLLLLLLMFICSSSCIRRSGHFEVFYWTHLSYLLVWLLLIFHGPNFWKWLLVPGILFFLEKAIGLAVSRMAAVCIMEVNLLPSKVTHLLIKRPPFFHYAPGDYLYLNIPTIARYEWHPFTISSAPEQKDTIWLHIRSQGQWTNRLYESFKASDPLGRGSKRLSRSVTMRKSQRSSKGSEILLEKHKFCNIKCYIDGPYGTPTRRIFASEHAVLIGAGIGITPFASILQSIMYRHQKRKHTCPSCQHSWIEGVQDNMKLHKVDFIWINRDQRSFEWFVSLLTKLEMDQAEEAQYGRFLELHMYMTSALGKNDMKAIGLQMALDLLANKEKKDSITGLQTRTQPGRPDWSKVFQKVAAEKKGKVQVFFCGSPALAKVLKGHCEKFGFRFFQENF		binds
NOX5 R531A (enzyme, human, UniProt Q96PH1-4 1-719, looked up, NADPH oxidase 5, human, NOX5-β variant (v2 isoform in the methods; UniProt Q96PH1-4), point mutant; source: HEK293F, purified with the same protocol as NOX5 wild type (GFP-nanobody beads, preScission cleavage); not shown: GFP, N-terminal, cleaved) MSAEEDARWLRWVTQQFKTIAGEDGEISLQEFKAALHVKESFFAERFFALFDSDRSGTITLQELQEALTLLIHGSPMDKLKFLFQVYDIDGSGSIDPDELRTVLQSCLRESAISLPDEKLDQLTLALFESADADGNGAITFEELRDELQRFPGVMENLTISAAHWLTAPAPRPRPRRPRQLTRAYWHNHRSQLFCLATYAGLHVLLFGLAASAHRDLGASVMVAKGCGQCLNFDCSFIAVLMLRRCLTWLRATWLAQVLPLDQNIQFHQLMGYVVVGLSLVHTVAHTVNFVLQAQAEASPFQFWELLLTTRPGIGWVHGSASPTGVALLLLLLLMFICSSSCIRRSGHFEVFYWTHLSYLLVWLLLIFHGPNFWKWLLVPGILFFLEKAIGLAVSRMAAVCIMEVNLLPSKVTHLLIKRPPFFHYRPGDYLYLNIPTIARYEWHPFTISSAPEQKDTIWLHIRSQGQWTNRLYESFKASDPLGRGSKRLSRSVTMRKSQRSSKGSEILLEKHKFCNIKCYIDGPYGTPTRAIFASEHAVLIGAGIGITPFASILQSIMYRHQKRKHTCPSCQHSWIEGVQDNMKLHKVDFIWINRDQRSFEWFVSLLTKLEMDQAEEAQYGRFLELHMYMTSALGKNDMKAIGLQMALDLLANKEKKDSITGLQTRTQPGRPDWSKVFQKVAAEKKGKVQVFFCGSPALAKVLKGHCEKFGFRFFQENF		binds
